According to paper PMC9342958:

Molecular target: CARD9 CARD fused to mEos3.1 (human)
Experiment: FRET or BRET; DAmFRET (Distributed Amphifluoric FRET) in living S. cerevisiae: protein fused to mEos3.1, GAL promoter, about 16 hr in galactose, part of mEos3.1 photoconverted to the acceptor form, AmFRET against expression level by flow cytometry

threshold concentration of polymerisation: 100 µM
Substance: CARD9 CARD fused to mEos3.1 (domain or fragment)
